Publication PMC12102759 (2025)

B1: AMOTL2 peptide 64-79 (Angiomotin-like protein 2), 16-mer library wild type / TNKS ANK (TNKS 12 ANK repeats, residues 174-649) (parent complex)
chain 1: QVLQQATRQEPQGQEH
chain 2: TGVPAVSGALRELLEACRNGDVSRVKRLVDAANVNAKDMAGRKSSPLHFAAGFGRKDVVEHLLQMGANVHARDDGGLIPLHNACSFGHAEVVSLLLCQGADPNARDNWNYTPLHEAAIKGKIDVCIVLLQHGADPNIRNTDGKSALDLADPSAKAVLTGEYKKDELLEAARSGNEEKLMALLTPLNVNCHASDGRKSTPLHLAAGYNRVRIVQLLLQHGADVHAKDKGGLVPLHNACSYGHYEVTELLLKHGACVNAMDLWQFTPLHEAASKNRVEVCSLLLSHGADPTLVNCHGKSAVDMAPTPELRERLTYEFKGHSLLQAAREADLAKVKKTLALEIINFKQPQSHETALHCAVASLHPKRKQVTELLLRKGANVNEKNKDFMTPLHVAAERAHNDVMEVLHKHGAKMNALDTLGQTALHRAALAGHLQTCRLLLSYGSDPSIISLQGFTAAQMGNEAVQQILSESTPIRTSD
B2: RNF115 peptide 69-84 (E3 ubiquitin-protein ligase RNF115), 16-mer library wild type / MDM2 SWIB (MDM2 SWIB/MDM2 domain, residues 17-125) (parent complex)
chain 1: THFAELWGHLDHTMFF
chain 2: SQIPASEQETLVRPKPLLLKLLKSVGAQKDTYTMKEVLFYLGQYIMTKRLYDEKQQHIVYCSNDLLGDLFGVPSFSVKEHRKIYTMIYRNLVVVNQQESSDSGTSVSEN

Variants of: B1
Assay: proteomic peptide phage display deep mutational scan (ProP-PD DMS): M13 P8 16-mer library selected against immobilised GST-tagged bait for four days (rounds), NGS of the eluted pools per day and pseudo-replica; bait immobilised on MaxiSorp plates (10 µg), library pre-cleared on GST, 2 h binding at 4 °C, five washes; one round per day, days 1-4; value from days 2 and 3

Variant | screen value
chain 1 H16P | 0.000313 average fractional NGS count over selection days 2 and 3 (reads of this peptide / all reads for the bait, averaged over …
chain 1 H16Q | 0.000195 average fractional NGS count over selection days 2 and 3 (reads of this peptide / all reads for the bait, averaged over …
chain 1 H16A | 0.00111 average fractional NGS count over selection days 2 and 3 (reads of this peptide / all reads for the bait, averaged over …
chain 1 H16Y | 0.00033 average fractional NGS count over selection days 2 and 3 (reads of this peptide / all reads for the bait, averaged over …
chain 1 H16N | 0.00139 average fractional NGS count over selection days 2 and 3 (reads of this peptide / all reads for the bait, averaged over …
chain 1 H16M | 0.0005 average fractional NGS count over selection days 2 and 3 (reads of this peptide / all reads for the bait, averaged over …
chain 1 H16V | 0.000284 average fractional NGS count over selection days 2 and 3 (reads of this peptide / all reads for the bait, averaged over …
chain 1 H16R | 0.00349 average fractional NGS count over selection days 2 and 3 (reads of this peptide / all reads for the bait, averaged over …
chain 1 Q4R | 0.000203 average fractional NGS count over selection days 2 and 3 (reads of this peptide / all reads for the bait, averaged over …
chain 1 Q4P | 0.000712 average fractional NGS count over selection days 2 and 3 (reads of this peptide / all reads for the bait, averaged over …
chain 1 Q4W | 0.000181 average fractional NGS count over selection days 2 and 3 (reads of this peptide / all reads for the bait, averaged over …
chain 1 Q4Y | 0.00141 average fractional NGS count over selection days 2 and 3 (reads of this peptide / all reads for the bait, averaged over …
chain 1 Q4A | 0.00355 average fractional NGS count over selection days 2 and 3 (reads of this peptide / all reads for the bait, averaged over …
chain 1 Q4E | 0.000127 average fractional NGS count over selection days 2 and 3 (reads of this peptide / all reads for the bait, averaged over …
chain 1 Q4M | 0.000805 average fractional NGS count over selection days 2 and 3 (reads of this peptide / all reads for the bait, averaged over …
chain 1 Q4D | 0.000668 average fractional NGS count over selection days 2 and 3 (reads of this peptide / all reads for the bait, averaged over …
chain 1 Q4S | 0.000703 average fractional NGS count over selection days 2 and 3 (reads of this peptide / all reads for the bait, averaged over …
chain 1 Q4I | 0.0028 average fractional NGS count over selection days 2 and 3 (reads of this peptide / all reads for the bait, averaged over …
chain 1 Q4H | 0.000314 average fractional NGS count over selection days 2 and 3 (reads of this peptide / all reads for the bait, averaged over …
chain 1 Q4T | 0.0012 average fractional NGS count over selection days 2 and 3 (reads of this peptide / all reads for the bait, averaged over …
chain 1 Q4G | 0.000278 average fractional NGS count over selection days 2 and 3 (reads of this peptide / all reads for the bait, averaged over …
chain 1 G13V | 0.00137 average fractional NGS count over selection days 2 and 3 (reads of this peptide / all reads for the bait, averaged over …
chain 1 G13R | 0.000155 average fractional NGS count over selection days 2 and 3 (reads of this peptide / all reads for the bait, averaged over …

Variant | screen value
chain 1 T7Q | 0.000226 average fractional NGS count over selection days 2 and 3 (reads of this peptide / all reads for the bait, averaged over …
chain 1 T7V | 0.00296 average fractional NGS count over selection days 2 and 3 (reads of this peptide / all reads for the bait, averaged over …
chain 1 T7I | 0.000358 average fractional NGS count over selection days 2 and 3 (reads of this peptide / all reads for the bait, averaged over …
chain 1 T7F | 0.000844 average fractional NGS count over selection days 2 and 3 (reads of this peptide / all reads for the bait, averaged over …
chain 1 T7S | 0.000189 average fractional NGS count over selection days 2 and 3 (reads of this peptide / all reads for the bait, averaged over …
chain 1 T7P | 0.000581 average fractional NGS count over selection days 2 and 3 (reads of this peptide / all reads for the bait, averaged over …
chain 1 T7Y | 0.00199 average fractional NGS count over selection days 2 and 3 (reads of this peptide / all reads for the bait, averaged over …
chain 1 T7N | 0.00127 average fractional NGS count over selection days 2 and 3 (reads of this peptide / all reads for the bait, averaged over …
chain 1 T7L | 0.000808 average fractional NGS count over selection days 2 and 3 (reads of this peptide / all reads for the bait, averaged over …
chain 1 T7M | 0.000455 average fractional NGS count over selection days 2 and 3 (reads of this peptide / all reads for the bait, averaged over …
chain 1 T7A | 0.000494 average fractional NGS count over selection days 2 and 3 (reads of this peptide / all reads for the bait, averaged over …
chain 1 Q14R | 0.0014 average fractional NGS count over selection days 2 and 3 (reads of this peptide / all reads for the bait, averaged over …
chain 1 Q14I | 0.002 average fractional NGS count over selection days 2 and 3 (reads of this peptide / all reads for the bait, averaged over …
chain 1 Q14K | 0.000473 average fractional NGS count over selection days 2 and 3 (reads of this peptide / all reads for the bait, averaged over …
chain 1 Q14Y | 0.000143 average fractional NGS count over selection days 2 and 3 (reads of this peptide / all reads for the bait, averaged over …
chain 1 Q14W | 0.00254 average fractional NGS count over selection days 2 and 3 (reads of this peptide / all reads for the bait, averaged over …
chain 1 Q14L | 0.000371 average fractional NGS count over selection days 2 and 3 (reads of this peptide / all reads for the bait, averaged over …
chain 1 Q14V | 0.000381 average fractional NGS count over selection days 2 and 3 (reads of this peptide / all reads for the bait, averaged over …
chain 1 Q14A | 0.0303 average fractional NGS count over selection days 2 and 3 (reads of this peptide / all reads for the bait, averaged over …
chain 1 Q14H | 0.00069 average fractional NGS count over selection days 2 and 3 (reads of this peptide / all reads for the bait, averaged over …
chain 1 Q14M | 0.000951 average fractional NGS count over selection days 2 and 3 (reads of this peptide / all reads for the bait, averaged over …
chain 1 Q14T | 0.00286 average fractional NGS count over selection days 2 and 3 (reads of this peptide / all reads for the bait, averaged over …
chain 1 Q12A | 0.00119 average fractional NGS count over selection days 2 and 3 (reads of this peptide / all reads for the bait, averaged over …

Variant | screen value
chain 1 Q12Y | 0.0011 average fractional NGS count over selection days 2 and 3 (reads of this peptide / all reads for the bait, averaged over …
chain 1 Q12N | 0.000885 average fractional NGS count over selection days 2 and 3 (reads of this peptide / all reads for the bait, averaged over …
chain 1 Q12D | 0.000551 average fractional NGS count over selection days 2 and 3 (reads of this peptide / all reads for the bait, averaged over …
chain 1 Q12L | 0.00049 average fractional NGS count over selection days 2 and 3 (reads of this peptide / all reads for the bait, averaged over …
chain 1 Q12P | 0.000174 average fractional NGS count over selection days 2 and 3 (reads of this peptide / all reads for the bait, averaged over …
chain 1 Q12H | 0.000111 average fractional NGS count over selection days 2 and 3 (reads of this peptide / all reads for the bait, averaged over …
chain 1 Q12F | 0.00125 average fractional NGS count over selection days 2 and 3 (reads of this peptide / all reads for the bait, averaged over …
chain 1 Q12M | 0.00046 average fractional NGS count over selection days 2 and 3 (reads of this peptide / all reads for the bait, averaged over …
chain 1 Q12W | 0.000556 average fractional NGS count over selection days 2 and 3 (reads of this peptide / all reads for the bait, averaged over …
chain 1 E15W | 0.00103 average fractional NGS count over selection days 2 and 3 (reads of this peptide / all reads for the bait, averaged over …
chain 1 E15D | 0.000568 average fractional NGS count over selection days 2 and 3 (reads of this peptide / all reads for the bait, averaged over …
chain 1 E15V | 0.00435 average fractional NGS count over selection days 2 and 3 (reads of this peptide / all reads for the bait, averaged over …
chain 1 E15H | 0.000392 average fractional NGS count over selection days 2 and 3 (reads of this peptide / all reads for the bait, averaged over …
chain 1 E15Y | 0.0003 average fractional NGS count over selection days 2 and 3 (reads of this peptide / all reads for the bait, averaged over …
chain 1 E15N | 0.00037 average fractional NGS count over selection days 2 and 3 (reads of this peptide / all reads for the bait, averaged over …
chain 1 E15F | 0.000795 average fractional NGS count over selection days 2 and 3 (reads of this peptide / all reads for the bait, averaged over …
chain 1 E15P | 0.000133 average fractional NGS count over selection days 2 and 3 (reads of this peptide / all reads for the bait, averaged over …
chain 1 E15S | 0.00106 average fractional NGS count over selection days 2 and 3 (reads of this peptide / all reads for the bait, averaged over …
chain 1 E15I | 9.73e-05 average fractional NGS count over selection days 2 and 3 (reads of this peptide / all reads for the bait, averaged over …
chain 1 P11V | 0.000173 average fractional NGS count over selection days 2 and 3 (reads of this peptide / all reads for the bait, averaged over …
chain 1 P11T | 0.00762 average fractional NGS count over selection days 2 and 3 (reads of this peptide / all reads for the bait, averaged over …
chain 1 P11A | 0.000173 average fractional NGS count over selection days 2 and 3 (reads of this peptide / all reads for the bait, averaged over …

Variants of: B2
Assay: as above

Variant | screen value
chain 1 T13W | 0.000505 average fractional NGS count over selection days 2 and 3 (reads of this peptide / all reads for the bait, averaged over …
chain 1 T13G | 0.00624 average fractional NGS count over selection days 2 and 3 (reads of this peptide / all reads for the bait, averaged over …
chain 1 T13Q | 0.000442 average fractional NGS count over selection days 2 and 3 (reads of this peptide / all reads for the bait, averaged over …
chain 1 F15M | 0.0114 average fractional NGS count over selection days 2 and 3 (reads of this peptide / all reads for the bait, averaged over …
chain 1 F15H | 0.000286 average fractional NGS count over selection days 2 and 3 (reads of this peptide / all reads for the bait, averaged over …
chain 1 H12V | 0.000717 average fractional NGS count over selection days 2 and 3 (reads of this peptide / all reads for the bait, averaged over …
chain 1 L6M | 0.000951 average fractional NGS count over selection days 2 and 3 (reads of this peptide / all reads for the bait, averaged over …
